In the DeepSol protein solubility set:

Assay: soluble on expression in E. coli; label from the status in PepcDB or PDB records

Row | Sequence | soluble on expression in E. coli
1 | MGSDKIHHHHHHMMKMAEFIMVVGTSSNSGKTTITAGLCRILANKGYKVAPFKSQNMSLNSRVAKEDGEIAIAQYTQSLACRVEPSVHFNPILLKPKGNFISQVIVHGRPYKDMNYNEYRKNKDFFLKKIKESLEILDREYDYVIMEGAGSCCEINLLKDDIANLRIAELVNAKAILVADIDRGGVFASIYGTIKLLPENWRKLIKGIIINKFRGNVEVLKEGIEKIEELTGIPVLGIVPYDENLVLPEEDSQVLQSMRSFGNAKSGVEINVVRFSKISNFTDLDPLRYDAFIKFIDFDDDITGDILIFPGTRSSTKEAYYLKQHNFDEKVLEFLKDGGIVIGICGGYQVLGKELIDKEKKESDVGDIEGLKIFDAKTYFGNDKVVKNSCGFLEIDNKTFNVKGYEIHEGFTYSKEKPLIKIERGFGNCGNGFDGSIKKFGDGLAIGTYFHGIFENYEFRNYIINLIRKRKGLDEIYGDSYKDSIEKSLNYFAEVVERSVNLKPLGINAT | not soluble
2 | YALTEGEDYLVLDKPIPQEQPGKIEVLEFFGYFCVHCHHFDPLLLKLGKALPSDTYLRTEHVVWRPEMLGLARMAAAVKLSGLKYQANSAVFKAVYEQKIRLENRAVAGKWALSQKGFDGKKLMRAYDSPEAAAVALKMQKLTEQYGIDSTPTVIVGGKYRVIFNNGFDGGVHTIKELVAK | not soluble
3 | SLAGETINFCKGWKFHLGDAGKGASSSSYNDSQWRILNIPHDWSIEGTYKQFENGTDWQSGFLPAGISWYRKTFTIPSKWKNKKVQILFEGVYLNSEVWINGHWLGKRPNGYISFVYDLTPYLQEGKNQIAVKVDHSKALTGRWYTGSGIYRPVYLLVSNPTHIPYSGIHFRSKLQNKQSATYTLSIEIETQEKKPIKVKTYLQAPNGSIADTSEKIFVSSADSLCFLSGSIRKPLLWSPDSPNVYTLICQLTRDNKILDECRLPVGFRQLEFNPVSGFLLNGKSLKIKGVCDHHTVGAVGAAVPDDLLHYRLKLLKDMGCNAIRTSHNPFSPAFYNLCDTMGIMVLNEGLDGWNQPKAADDYGNYFDEWWQKDMTDFIKRDRNHPSIIMWSIGNEVTGATPEIQHNLVSLFHQLDPDRPVTQGGTDPTRGMKTDYQKKFNYLDIIGFNGNGEEIGELEHFHKNYPTLCAIATEVPHTYQTRGVYRSQTQWRRRDFPAPWEKGNINWEQFKHRVFPIPDLTEKECFPEESDYPYYQSSYDNASVRISARKSWQRTCSFPWLMGEFRWGSFDYLGEAEWPQRCGNFGIIDIAAIPKDAYFLYQSLWTDKPMVHLLPHWTHPGKEGKTIPVVIYTNCDAVELFINNVSLGSKPYTGEQLIWLVPYSPGKIEARGIKKGKIVATDCYQSAEAPHSVALASNKYSVKAGSDEVIRIEIDITDKNGIPCPYASNELSFHVSGPLRLLGVDNGNPTDMFPYQQPHCRCFRGKCVVLLQSDEEKGKGTLTVQGTKLVEKKLIIEVIEG | soluble
4 | MPRYLGLMSGTSLDGMDIVLIEQGDRTTLLASHYLPMPAGLREDILALCVPGPDEIARAAEVEQRWVALAAQGVRELLLQQQMSPDEVRAIGSHGQTIRHEPARHFTVQIGNPALLAELTGIDVVADFRRRDVAAGGQGAPLVPAFHQALFGDDDTSRAVLNIGGFSNVSLLSPGKPVRGFDCGPGNVLMDAWIHHQRGEHFDRDGAWAASGQVNHALLASLLADEFFAARGPKSTGRERFNLPWLQEHLARHPALPAADIQATLLELSARSISESLLDAQPDCEEVLVCGGGAFNTALMKRLAMLMPEARVASTDEYGIPPAWMEGMAFAWLAHRFLERLPGNCPDVTGALGPRTLGALYPA | not soluble
5 | MNTLSDSASPLYEKVKDFVLGNIGSGKWARNSRLPSENELVSALGVSRMTVHRALRELTSEGHLRRIQGVGTFVAPPRPRSTLIEISNIITEIKTRGSRHRAEVVVLERIARPEPELLLAFEFETVKPVDHSVVIHFENDLPVQLEERYVNPNLVSGYIDQDFAAVATYDYLQNATPLTEVEHLISALPANAEQARLLNVRPGDCCLILHRKTWTGPVVATVNTFTYVGSRYSLGSRYLHGGK | not soluble
6 | MFGSSGFGNKSMFGGSNISTSTTTPAANTTQNDDFLVDGAPEDTIQVIKFSPTPQDKPMLACGSWDGTIRVWMFNDANTFEGKAQQNIPAPILDIAWIEDSSKIFIACADKEARLWDLASNQVAVVGTHDGPVKTCHWINGNNYQCLMTGSFDKTLRFWDMKNLPNQTQMAQIQLPERVYAADVLYPMAVVALANKHIKVYNLENGPTEVKDIESQLKFQIRCISIFKDKSNQNPAGFALGSIEGRVAVQYVDVANPKDNFTFKCHRSAELVNGFQEIYAVNDICFHPQHGTLVTIGSDGRYSMWDKDARTKLKTSEPHPMPLTCCDVHSSGAFLVYALGYDWSRGHEGNTQPGSKIVIHKCIEDMKPRPTKK | not soluble
7 | ELLCPAGTLKSMRYAFAYGADAVYAGQPRYSLRVRNNDFDHAQLAEGIAEAHALGKRFYVVVNIAPHNAKLKTFLRDLEPVVAMGPDALIMSDPGLIMLVRQHFPQMPIHLSVQANAVNWAAVQFWRQQGLTRVILSRELSLEEIEEIRQQVPDMELEVFVHGALCMAYSGRCLLSGYINRRDPNQGTCTNACRWEYKAVEGREDELGNVVAREPTLGRGAPTEQVFLLEEGNRPGEPMAAFEDEHGTYIMNSKDLRAVQHVERLARIGVHSLKIEGRTKSHYYVARTAQVYRQAIDDAAAGKPFDRGLMDTLESLAHRGYTEGFLRRHVHDEYQNYQHGHSLSERQQFVGELTGERRDGLAEVEVKNRFQRGDSVELMTPRGNLSLRVEDLRNAAGEAIEVAPGNGHVVYLALPEGLDLCYALLMRDLQPGQDTRQPQAERSGGCAGK | not soluble
8 | YATQSKNTNILLEYVSANPTGDLHIGHARNAAVGDSLANILIAAGYNVTREYYINDAGNQITNLARSIEARYFEALGDTSYEMPADGYNGKDIIEIGKDLAVKHPEIKDYSDEERLKTFRQLGVDYEMEKLKKDLSDFNVHFDNWFSETSLYENGAIKNTLSKMKELGYTYEADGATWLRTSDFKDDKDRVLIKKDGNYTYFTPDTAYHYNKINRGNDILIDLMGADHHGYINRLKASLETFGVDSDRLEIQIMQMVRLMQNGEEVKMSKRTGNAITLREIMDEVGIDAARYFLTMRSPDSHFDFDLELAKEQSQDNPIYYAQYAHARICSILKQAKE | not soluble
9 | MGSDKIHHHHHHMKVAVIGAKGQLGTDLVDVLKEEFTVYPLTHEDVDVAVSESLEVLRDIHPDVIINTAAYVRVDDAENHAEKAFAVNAIGALNVARISSEIDAVNIYISTDYVFDGEKGEPYVETDKPNPINVYGASKYAGEILTKNYSEKHYVIRVASLYGKAGASGKGGNFVNWVVDMARKGQELRIVADQFMSPTYTKDVALAVREFLKLRPDYGIYHMVNDGYCSWFEFTKAIFEILDWDVEIQPIKSSELNRLARRPAFSALQNYKLERIGIKMRHWREALRDYLAEKGLV | not soluble
10 | MEEPVLDFQFVHRKIHTGQIAAFDIIARLVPIKNIRGNDFDDRPAAAVFGMHNLQTRPVARHFEGGADFTQLIVLTLGQPESAYVAVRLKIVRGDISRGGVGKLTGKQSHT | not soluble
11 | KVLTIKSCNIHSGIGIRPHAQIELEYQGKIHKEISEGDGGYDAFMNALTKITNRLGISIPKLIDYEVRIPPGGKTDALVETRITWNKSLDLEEDQTFKTMGVHPDQTVAAVHATEKMLNQILQPWQI | soluble
12 | MGSDKIHHHHHHMTIRSKFALFAGSSSYILLHKILHRGGTSLPGKIAYRIDPTFLEEFRDQIETVIVSGTNGKTLTTALCARVLKKTNRVVVTNNSGSNMIQGIVAALLSQKDKIKKSIRHGTIPIAVLEVDEANVKEVAKILQPTHFVLTNIFRDQMDRYGEIYTTYEKITDGIKTAPKAKVVANGDSPIFARKPYKNQAVYFGFTHKKSVGDLRAPNNTDGVLAPTNDQVLHYHYLTYANLGDYFTKDGSFKRPQLKYSVNKINSLTPSKSEFEIAGNKFTLPLGGLYNIYNALAAYSLGREFQISAEDIFNALNEDSRIFGRQEQLTIGSHLVTIVLIKNPVGANSVIDMMMTDPEEFSLVTLLNANYADGIDTSWIFDAEFEKLHQTALKKIIVGGQRYKDFSVRLKMAGFKNQIVEQDFAKLIDRIKELPTKNVYVAATYTSMLMFREELAKAGLAKESF | not soluble
13 | SFLNGNCLETLKKKEPEGGRRRLSHPGNMGWMRPSQETTPPDRSHHSGFGLFCGDPGPEIEPFSLWVFPQEMVLEIHQLFMDHEYPCHHITSHCTWVAAHWTTSQSCAAWQGCRRACCSTWWKSPAQCTRPTVMSATFETAQEPGPS | soluble
14 | MKNIHSIEFYTGSKEELLPDFEKDFPYIASRAELDKYIGGYVPWHWHRTVELFYMESGSIEYDTPGGKILFPAGSGGMINPNVLHMTKAISQREKNIQLLHIFDVSLLAGEQGSRIEQKYIAPVITAPQIEVIPLFPGNAEEERILKLLAASFRLSSDEFGYEIKLREALTEIWLMLFELSCSMREKKGEHNKSNDKIKLMMIYIHEHYREKISILELAAAAYLSERECYRVFHDCLHMTPVEYITTYRLQIACQMLAKGQEPITVISHECGLGSSSYFGKVFREYAYCSPTEYRKKWQNSDM | soluble
15 | GTIPKPTLWAEPDSVITQGSPVTLSCQGSLEAQEYRLYREKKSASWITRIRPELVKNGQFHIPSITWEHTGRYGCQYYSRARWSELSDPLVLVMTGAYPKPTLSAQPSPVVTSGGRVTLQCESQVAFGGFILCKEGEDEHPQCLNSQPHARGSSRAIFSVGPVSPNRRWSHRCYGYDLNSPYVWSSPSDLLELLVPG | soluble
16 | LSLTQLSSGNPVYEKYYRQVEAGNTGRVLALDAAAFLKKSGLPDLILGKIWDLADTDGKGVLSKQEFFVALRLVACAQNGLEVSLSSLSLAVPPPRFHD | soluble
17 | MSIPLLEYKPSSQNQRVPGYEVPNEDTPRIYRIEDAAYDSELKELIWATYRQVFSEHVILKFFRQGNLESQLKNRAISVRDFVRGLAKSEAFKTLVIKSNSNYRLVELALKRLLGRAPYNKDEEIAWSIKIATNGWDGFVDALLDSEEYQSNFGENIVPYQRRRYKDRPFNLVTPRYGNYWRDKLESERYIEGDIKNFLELAKSIEIKTVTFTPVSTANIKIPDTTRNTTPTGIPISVNPSANFPVRLEHHHHHH | not soluble
18 | DHIPGTDIDLTVPYAAEGPGPTVNTLGDVDGKPVVNVSGAEIHKTTGNLNMTTVSVRTHLTLGQALGRWLIAHDTLVPIEQIFPQGKTPEEVDEVNKAAFSTSEASATIAAMNQLHKPVDT | not soluble
19 | HHHHHHLQGAAPTATVTPSSGLSDGTVVKVAGAGLQAGTAYDVGQCAWVDTGVLACNPADFSSVTADANGSASTSLTVRRSFEGFLFDGTRWGTVDCTTAACQVGLSDAAGNGPEGVAISFN | soluble
20 | GPQKRCLFVCRHGERMDVVFGKYWLSQCFDAKGRYIRTNLNMPHSLPQRSGGFRDYEKDAPITVFGCMQARLVGEALLESNTVIDHVYCSPSLRCVQTAHNILKGLQQDNHLKIRVEPGLFEWTKWVAGSTLPAWIPPSELAAANLSVDTTYRPHIPVSKLAISESYDTYINRSFQVTKEIISECKSKGNNILIVAHASSLEACTCQLQGLSPQNSKDFVQMVRKIPYLGFCSCEELGETGIWQLTDPPILPLTHGPTGGFNWRETLLQE | soluble
21 | SREPVDILREQKINAEWALKQQSDKLAAQFDNMDDAYLRERKQDMLQVVRRIHNNLIGQGNELEVADNLFDETVLIANDLSPADTVLFKEQR | not soluble
22 | GAMGDDSMRMSHLKVGSAADIPINISETDLSLLTATVVPPSGREEPCLLKRLRNGHVGISFVPKETGEHLVHVKKNGQHVASSPIPVVISQSEIGDASRVRVSGQGLHEGHTFEPAEFIIDTRDAGYGGLSLSIEGPSKVDINTEDLEDGTCRVTYCPTEPGNYIINIKFADQHVPGSPFSVKVTGEGRVK | soluble
